Experiment [1] deals with human S100A6 (human). Briefly: ITC. On the technique in general: ITC needs no label: the signal is the heat of the interaction.
The target in experiment [2] is human S100A6 (human). Briefly: ITC. The source holds these as a separate data set.

The results in this text go back to paper PMC5995566.

Where two headings read alike, the source gives them in different places.

For orientation: Kd means the equilibrium constant for the complex coming apart. Lower therefore signals a tighter complex.

Chain of peptide from Siah-interacting protein (SIP) (Q9HB71 188-218): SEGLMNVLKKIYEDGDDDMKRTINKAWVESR

Turning to “peptide from Siah-interacting protein (SIP) (from UniProt Q9HB71 188-218)”, in the experiment with human S100A6 (human) [1], the Kd was determined as 20 µM. Moreover, in the experiment with human S100A6 (human) [2], the Kd worked out at 26 µM, the dH came out at 2.9 kcal/mol and the fx comp was 1.5.
